How the values were obtained:
Details in all cases: chains Vgamma:Vdelta
peptide on (human) [1] = assay: IFNγ ELISA, CD4+ transduced T-cells against Daudi, pamidronate titration; against γ9-G115wt/δ2-G115wt (max. 800 pg/ml); full-length, on cells
peptide on (human) [2] = assay: IFNγ ELISA, CD4+ transduced T-cells against Daudi, pamidronate titration; full-length, on cells; set-up: unit not given here
peptide on (human) [3] = assay: IFNγ ELISA, CD4+ transduced T-cells against Daudi, pamidronate titration; against γ9-G115wt/δ2-G115wt (max. 800 pg/ml); the clone number is missing in the printed name; full-length, on cells

B1: γ9-cl3wt/δ2-cl3wt (protein)
chain 1: AGHLEQPQISSTKTLSKTARLECVVSGITISATSVYWYRERPGEVIQFLVSISYDGTVRKESGIPSGKFEVDRIPETSTSTLTIHNVEKQDIATYYCALWEEELGKKIKVFGPGTKLIIT
chain 2: AIELVPEHQTVPVSIGVPATLRCSMKGEAIGNYYINWYRKTQGNTMTFIYREKDIYGPGFKDNFQGDIDIAKNLAVLKILAPSERDEGSYYCACDLLGYTDKLIFGKGTRVTVEP
maximal IFNγ secretion (peptide on (human) [1]): 600 µg/mL | EC50 of pamidronate (peptide on (human) [2]): 30

B2: γ9-cl3wt/δ2-G115wt (protein)
chain 1: B1 chain 1
chain 2: AIELVPEHQTVPVSIGVPATLRCSMKGEAIGNYYINWYRKTQGNTMTFIYREKDIYGPGFKDNFQGDIDIAKNLAVLKILAPSERDEGSYYCACDTLGMGGEYTDKLIFGKGTRVTVEP
maximal IFNγ secretion (peptide on (human) [3]): 100 pg/mL
